Test system: Saccharomyces cerevisiae
Experiment: transcriptional activation domain activity (GFP:mCherry ratio, weighted mean of sorted bins, harmonized to initial dataset scale) (arbitrary fluorescence ratio units); higher = stronger transcriptional activation
Details: beta-estradiol 1 µM; induction time 4 h
Procedure, shortened: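 Sorting into 8 bins by GFP:mCherry ratio followed a 4-hour hold at 30 °C after cultures were diluted 1:5 into SC with 1 uM beta-estradiol. The yeast diploids carried a GFP reporter and had barcoded protein tiles, fused to an estradiol-inducible synthetic transcription factor, integrated at URA3. Barcodes were then sequenced, and tiles with under 50 reads were removed. Activation activity is the read-weighted mean of bin median fluorescence, averaged across barcodes and linearly mapped onto the initial dataset scale.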

Row | Sequence | transcriptional activation domain activity
1 | VAALLATSLCMIYPLWSIFSIVQVIYMFANICLLVWVIPKGLHFACYYLLGVS | 37400
2 | MLLLSPFFPFLLPSSLSFFFPFPFISTLLSFCLSDTLFNLARSFFIAFLSTLF | 42600
3 | MVSCYIPLLIGFLGLVGPVLSRFFFLFSLFSWLIGRLVLYLILFLSSLCHGLG | 30300
4 | MPTVRCLLPFVLFTGLLYRILLSLSFLLVLPFLILLFSSPSLLSCFLLLAYIL | 57000
5 | LKIKLLVAWLWLLDTIHTCLLCSSNWRSLIVHYGDRRALDFIPTTTALGILFT | 34100
6 | LFYLLLLYYYYYCTILYILLHIHYIYIIYLFFLFVYSIYLFFFYILLFIIYYS | 52300
7 | SFSILYSRFAGPSIYMGMRNLLILLYVSMAIWIPHLIYFWLSVLSLCIAPFLF | 37800
8 | ILLSLFANHFPWDFRDALCLEFWVVAFRNLEMLEYFDGDLLLSEHGGTCTVSK | 34800
9 | MVYMSSVNVWGLDIYYSRVSIYLFFFPSLFFLWAASMSLFPYYFLPSLFYIVL | 26500
10 | NRSDEPELDVKELNRHVNADNLSDLQLDDSQKMGYVYKCLGAGIHLLRLSLRL | 39000
11 | KPKAAAKAAKPAKKAAPEKAEKPEKPEKAKEVEKPEKPEKVSKPAAKKAAPVA | 25000
12 | SFLYWGSAGLFGIYVMSFQDSWWYQMEHLWVKYPHWMMRSELKVYYLLQFSYW | 21600
13 | MSEPPRKRAKLACVTCNSRRVKCDVTDRQPCTNCITANVHCETRESKRGKHPR | 40500
14 | MPPFLFSEGAFMFRICFFPLCLWWCLFLFFSFFLLLQFLSYGFAFSCGRYILF | 65100
15 | SIYCRLIQKSLFLMMVPIVQMPPLLLLLTCYFLRIFLSFFTRMYFVCFVLIFL | 62400
16 | TRYCWGFINLWYSSLYLSGSIILNLAAFFLLPVHLFVSLMQTHLLQWELLLAF | 59500
17 | EVSFVALLLVWTYMRHYLNCKILYSVWTEFDLIPHHFRSWVHEPGYPHDIRGW | 45000
18 | IAQLRRDLFHAVWRLILTPALAEAYCHGIVIMCGDGVLRRVFPRFLLYSADYP | 63900
19 | RKLRTKIIELSGSVEAACALGVADGIVDLVESGETMRAAGLKAIDTVVDTQAV | 29100
20 | FISVYVPNFFVAFCLEMSQFFYLYQFMVMWLYYYWNYYVIGVIDTAIILVSAI | 47100
21 | MILMLLLLLLLLLLLLVMVLLLLLVMVLLVVLLVLLWVLLLMLLWVLLGVLLG | 16200
22 | MEAREGRAGNAFACERCRKHKVRCVPSGTAGICQRCQKARVECIEHVARRRPA | 29100
23 | EHQCATIQLDFQLPQQFNLEYMTSEKAPAAKIEAAPKTETAPKAEAPAAAPAA | 42500
24 | GASVDIHVTYQSSVKEGDEVEIEGIAEKVGGSLAFTKVNIFRVEDGERGRPVA | 36800
25 | KFKTFPLFLPRINFHSIPSFNILLSSFPNSIFLNVLFRISLYYIWAYFLWCAL | 52000

Row | Sequence | transcriptional activation domain activity
26 | MYHPPWVLVGKCGSKEVRDELARHQLIACSRDLSVHVLKVDLLRKSWLLGHWR | 58900
27 | MVEGDEKPARNGGPALQVIVLGSGGGPREDNTTAFLVRSVASGWKRGSVLAVD | 55100
28 | AAEKPAEEQPAETLVVEAKEVEEPKAAAKKGKKKAAKKEAEKVVEEQAVETPA | 32500
29 | PAPKKRAPRKRKANAATVEGEAEDNEAEGAAAAAPPKKRARTRKAAAAAAEPS | 41700
30 | PDRPCYSAIVRISTSRLHFYECKLYAHAFFQGLRYFMYHWRWTTTLVLMSLFL | 47200
31 | KEEAGEEAEEASPAPSEQKEEAPPSGQKPQANTGKKKDQASPAKKTGATAAAK | 13700
32 | KAAAAPKKKKAGVSDEEEKEEEEAESTPVDEDPKPKTKKLAAAKKPAAAAAAK | 33700
33 | EEAAAPAASKGQGTAAAASGRSRNRRRGAGEDGKGKAERGGEAMTSAPSPAKP | 13400
34 | GLVYMIGVYSISGLDRTLQMIHAILHVNFNSLVHKKGITHSCLLWLILIFFGL | 48000
35 | NPLPPKNNGQAAYKETDGIRIKDRRVLVDVERGRTVKGWKPRRFGGGLGGRGY | 47500
36 | FVARLFQSLRRWWDSGLTTHLINASLFFISDGGKYFMGILCYFFQHLWRHHGM | 47900
37 | ASSSDEEEQEVDDMETDSSKKRSHDETKEEEVEEEEERPKKTVKVEKPKEKKT | 29200
38 | RLFSKQLHPRMFRVCLTLIIIVAIWGLTFICLVIFACNPVEKSWHVTMPGKCI | 27500
39 | YFYGLERRHVTCSQLAYYLCDKALTPMFCGGRVGNDCFDPWGRLLTYWCFLPL | 77300
40 | ALVTVLLLLMGYLPHLNTVTLTVRTFRNRLSHHDFSQHELAIFLDLLPRRCPN | 98800
41 | AAPAAPADDGFQSVPGRNRGQREGGGNYRSRGGYRGEGRGRGGYRGEGRGRGR | 37000
42 | IEHKYTTQVNVFFGIVFSELLKSNTAVRGCLMVGIARVAKSGWMSGLNHIEVF | 68500
43 | MGCILIFSFFSFPTSIKKFLLLSFPFLSFPFPSLLFYLGFFSFLLYILQKFLV | 58100
44 | IAYPFFFIHSILLNLYYALLPYAFYLYLYIYIFLSFFSRLTVSSSFIPPLLSP | 65000
45 | NRRDASPEPHHKGKGKGKKNNRREAEADAEIEVREPHHKGKGKGKKNNAREAE | 21700
46 | EKESVCYKLRLNRDSLSIMKDFLACKHEHDPSLIVLAHVLLYKVTATFVKAVS | 53500
47 | SMGENLFDVFRARVILTWYYWTHARWCDVYMSSVISLRLAVTCGLNGCPPFQT | 75000
48 | MMACLVSGIGWCLLYFTCMYLLLIYYILSLFYPPLASCNSFSFFFLSFFFFAG | 67200
49 | VKKHYKLYYLDPGRTREFIAVSWFEVDILLVRWCSTTEYYTMTVFMTSLKKLN | 50000
50 | MCKVSCLGLFGGSFFFFGFGFYLLFYSSFHFSLPGWLVWILYFFFTFFGGSLR | 45900

Row | Sequence | transcriptional activation domain activity
51 | GKKDQEALKEGESSSESASASASKSSSSTKSSKGSKSSSAAAAEASDDGKPKK | 38600
52 | AGDTSDGESASTPAHSSHQSRKQQVRHRASVACASCRERRIRCVVPEGASECT | 27400
53 | MGFLFLLCVLVVWVFFRAWFFRFLFSLVFLFWYFFIYFLWPWYGGVGRGLHSC | 36100
54 | MCNLFSFSVQSISGNGVLYIFSFKVLYTFLPSPLLFLSFFSLLFYFFILSLFS | 38400
55 | ASGAKTVVKKEPASATPEPAPKQAEVKKPAAAEAAPVPAAKAAPALASAAAAA | 43400
56 | MSLSFFFFSFFFLFFIIIFGRSRWLCYDGFGFFFFSFFLLMLAVFLFLLTYFT | 50800
57 | LVMAHYLYANACAKGEHLIVTTWDMYYEKWGFMLIFWNMAGVPLSYCHCTLYL | 65300
58 | AVKAEPESTAPSLVKEENTEDTKPAPSSTAPAEPSSGGMFRKRKAPAAGAGSR | 39900
59 | MSSPKRITVLISGSGTNLQALMDAAGSSRLPNAQITHVISSRSAVKGLERAST | 53800
60 | PAYEMCTYVWGFRGACLGLLWLIWFVVLYFVLRIRNIHSSFNERIESIIICFL | 48800
61 | MKILYCILCMLFFFLFLSFYIQKKILFSLTCVFTLPPLSLFLFFFLFIVQILC | 55700
62 | FIVVLLTMEVIIHYLYMVAIFHVKPDWSQFTAAQLSMMGFLNLKHIWLKLLIP | 39000
63 | GHSGVSVDMHVSFLNSCREGEKVIIKSVIDKKGSRLAFVRVEIKRERDDAIII | 49500
64 | ELRNHMSAIIDICWGACGTYKGVELWLEWDRNDNVPFHDSLWRVVRFVIFVNH | 63200
65 | MLAWIYGVFFSRSIMYCPLILLITCALDFHFFYFSYLFLWGLFRLRGYIYHGW | 52000
66 | IYVIGCQPRFKTKLVEDKAEKRKCRIVLVPIFSETGVLVLLNIRTLEVRTVRF | 51700
67 | MGCVRHEKVIDITLKLFYKKTGGRYLKSEYNLFAVLVYLCLYRLPTDLPFATL | 53200
68 | KQYCVRPNSGRIEPGKDVEVQVLLQAMKEDPPLDAKCRDKFLVQSVAVTADKE | 24900
69 | GPASGASKPKRRYVRKRKEPEEGAGVDNAEASSMAPKPKRQRKKKAPMAEARN | 21900
70 | SWNAPSLTNSWDSPPGNRTGAVTIGDESINGSEMPDFSLDLVSNDRQTGLEAL | 32800
71 | SKHEDQKSRRSRDEKDRGSRSSRHREDGHRSHRDRSRSRDRHHRSSKHHERRR | 27700
72 | NMDQLDSVHNLNDDDLQQLLEDLGNIDHSDEKLWKEITDQAMWLGNTMDPTAA | 149000
73 | HLLILRFVAHFSHLGLGCSSYSLMFYVLSYLLYISLLSNIISLYPPSCLYLAH | 45400
74 | GARTGKDKEKEKDKEKDKGARRSSCRSWSRDRGRSRSRSPRRDRERDRERGRG | 31500

— the supplement of paper PMC12636428
